The record followed here is patent US20250269048A1 (BIVICTRIX, published 2025).

Substitutions are numbered along the chain they refer to. Like-named read-outs stand apart in the source and are kept apart here.

The target of assay [1] is T1, human CD7 (human, UniProt P09564 26-180, limits assumed).
T1 construct: The construct is not described
T1 sequence (looked up): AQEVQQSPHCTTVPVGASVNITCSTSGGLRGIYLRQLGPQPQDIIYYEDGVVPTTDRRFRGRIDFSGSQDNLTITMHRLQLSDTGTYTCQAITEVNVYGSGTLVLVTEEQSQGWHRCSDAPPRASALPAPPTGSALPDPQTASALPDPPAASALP
Kind of assay: SPR. Background: In SPR one partner is held on a chip, and binding of the other changes the refractive index at the surface.

Assay [2] deals with T2, human CD7 on cells (human, UniProt P09564 26-240).
T2 sequence (looked up): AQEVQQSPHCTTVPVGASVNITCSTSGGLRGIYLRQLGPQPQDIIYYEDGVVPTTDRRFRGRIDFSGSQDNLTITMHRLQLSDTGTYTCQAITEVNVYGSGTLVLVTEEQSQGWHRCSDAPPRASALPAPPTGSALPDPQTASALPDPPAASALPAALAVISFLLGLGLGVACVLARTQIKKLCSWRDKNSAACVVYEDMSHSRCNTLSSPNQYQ
As to the kind of experiment: cell capt. exp. Further details: unit not given here.

For assay [3], the target named is T2, human CD7 on cells. As to the kind of experiment: FACS; cells not named.
The target of assay [4] is T1, human CD7. Kind of assay: SPR; reference 7-AA-WT.
Assay [5] has as its target T1, human CD7. As to the kind of experiment: SPR; reference 7-PP-1 WT.
Assay [6] addresses T2, human CD7 on cells. Kind of assay: FACS; reference 7-PP-1 WT. A general note: Flow cytometry measures light scatter and fluorescence of single cells or particles in a stream.
Assay [7] deals with T1, human CD7. Kind of assay: SPR (Kd); value of the CD7 arm 7-PP-1 WT.
Assay [8] addresses T3, human CD33 (human, UniProt P20138 18-259, limits assumed).
T3 construct: The construct is not described
As to the kind of experiment: SPR (Kd); value of the CD33 arm 33-PP-1 WT.

Assay [9] concerns the target T3, human CD33. Kind of assay: SPR.
A further assay concerns the target T4, human CD33 on cells (human, UniProt P20138 18-364).
T4 construct: whole, on cells; also called CD33+ cells; MV4.11 (CD7-/CD33+)
Kind of assay: FACS; cells not named.

Assay [10] addresses T1, human CD7. Kind of assay: SPR (Kd); value of the CD7 arm 7-PP-13.
Assay [11] deals with T3, human CD33. As to the kind of experiment: SPR (Kd); value of the CD33 arm 33-PP-4.
For assay [12], the target named is T3, human CD33. Kind of assay: SPR; reference 33-PP-1 WT.
Assay [13] concerns the target T3, human CD33. Kind of assay: SPR (Kd); value of the CD33 arm 33-PP-7.
Assay [14] deals with T1, human CD7. Kind of assay: SPR (Kd); value of the CD7 arm 7-PP-3.
Assay [15] has as its target T1, human CD7. Kind of assay: SPR (Kd); value of the CD7 arm 7-PP-8.
Assay [16] deals with T1, human CD7. As to the kind of experiment: SPR (Kd); value of the CD7 arm 7-PP-2.

T4 sequence (P20138 18-364): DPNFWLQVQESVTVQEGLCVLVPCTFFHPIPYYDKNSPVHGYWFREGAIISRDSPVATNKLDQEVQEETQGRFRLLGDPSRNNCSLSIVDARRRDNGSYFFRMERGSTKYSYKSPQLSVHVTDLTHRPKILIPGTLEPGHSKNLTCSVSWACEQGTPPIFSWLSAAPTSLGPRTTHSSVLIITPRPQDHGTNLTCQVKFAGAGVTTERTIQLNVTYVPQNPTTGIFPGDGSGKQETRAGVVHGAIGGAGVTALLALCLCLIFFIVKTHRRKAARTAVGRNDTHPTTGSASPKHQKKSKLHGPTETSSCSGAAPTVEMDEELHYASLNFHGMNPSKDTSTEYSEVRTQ
T3 sequence (P20138 18-259 limits assumed): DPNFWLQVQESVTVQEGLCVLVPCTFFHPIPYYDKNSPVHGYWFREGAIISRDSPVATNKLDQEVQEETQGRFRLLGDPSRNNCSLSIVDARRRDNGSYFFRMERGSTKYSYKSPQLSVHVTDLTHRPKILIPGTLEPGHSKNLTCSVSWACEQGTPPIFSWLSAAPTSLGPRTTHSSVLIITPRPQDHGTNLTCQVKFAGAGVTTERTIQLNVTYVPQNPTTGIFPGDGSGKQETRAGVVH

B1: CD7-PP-13 CD7 binding arm (Fab, V domains shown)
VH: QVQLQESGAELVKPGASVKLSCKASGYTFTSYWMHWVKQRPGQGLEWIGKINPSNGRTNYNEKFKSKATLTVDKSSSTAYMQLSSLTSEDSAVYYCARGGVYYDLYYAALDYWGQGTTVTVSS
VL: DIELTQSPATLSVTPGDSVSLSCRASQSISNNLHWYQQKSHESPRLLIKSASQSISGIPSRFSGSGSGTDFTLSINSVETEDFGMYFCQQSNSWPYTFGGGTKLEIKR
notes: Heavy chain CDR3 Tyr108Ala; also called 7-PP-13 (mut_17-AA-1)
The Kd is the equilibrium constant for the complex coming apart. In the case of B1, the Kd was 44.5 nM in the assay with human CD7 [1] and 72.2 nM with human CD7 [1] (record 2). The molecule also came in with an Affinity from cell capt. exp. in the assay with human CD7 on cells [2] of 46. The FACS binding with human CD7 on cells [3] came to 28.4. The results for the Fold Reduction in binding affinity compared to WT (Kd) with human CD7 [4] and in the assay with human CD7 [4] (record 2) were 17 fold and 27.5 fold, respectively. The “Fold Reduction in binding affinity compared to PP WT (Kd)” value with human CD7 [5] was 20.3 fold. Besides, in the assay with human CD7 on cells [6], the “FACS fold reduction compared to PP WT” value came to 53.2 fold.

B2: BVX100 (bispecific antibody)
heavy: QVQLQESGAELVKPGASVKLSCKASGYTFTSYWMHWVKQRPGQGLEWIGKINPSNGRTNYNEKFKSKATLTVDKSSSTAYMQLSSLTSEDSAVYYCARGGVYYDLYYYALDYWGQGTTVTVSSASTKGPSVFPLAPSSKSTSGGTAALGCLVKDYFPEPVTVSWNSGALTSGVHTFPAVLQSSGLYSLSSVVTVPSSSLGTQTYCCNVNHKPSNTKVDKKVEPKSCDKT
light: DIELTQSPATLSVTPGDSVSLSCRASQSISNNLHWYQQKSHESPRLLIKSASQSISGIPSRFSGSGSGTDFTLSINSVETEDFGMYFCQQSNSWPYTFGGGTKLEIKRTVAAPSVFIFPPSDEQLKSGTASVVCLLNNFYPREAKVQWKVDNALQSGNSQESVTEQDSKDSTYSLSSTLTLSKADYEKHKVYACEVTHQGLSSPVTKSFNRGEC
VH: EVQLVQSGAEVKKPGSSVKVSCKASGYTITDSNIHWVRQAPGQSLEWIGYIYPYNGGTDYNQKFKNRATLTVDNPTNTAYMELSSLRSEDTAFYYCVNGNPWLAYWGQGTLVTVSS
VL: DIQLTQSPSTLSASVGDRVTIICRASESLDNYGIRFLTWFQQKPGKAPKLLMYAASNQGSGVPSRFSGSGSGTEFTLTISSLQPDDFATYYCQQTKEVPWSFGQGTKLEIK
notes: also called CD33-PP-1 WT/CD7-PP-1 WT
For the molecule B2, in the assay with human CD7 [7], the “Fold reduction in binding affinity vs 7-PP-1 WT” value (“Fold reduction … vs 7-PP-1 WT” below) came out at 0 fold. Besides, in the assay with human CD33 [8], the “Fold reduction in binding affinity vs 33-PP-1 WT” value (“Fold reduction … vs 33-PP-1 WT” below) was 0 fold.

B3: CD33-PP-1-WT binding arm (Fab, V domains shown)
VH: B2 VH
VL: B2 VL
As to B3, the dissociation constant (Kd) in the assay with human CD33 [9] was found to be 1.36 nM. Besides, the “FACS binding” value in the assay with human CD33 on cells turned out to be 0.16 nM.

B4: BVX161 (bispecific antibody)
heavy: B2 heavy with Y108A
light: B2 light
VH: B2 VH with W102Y
VL: B2 VL
notes: bi-Fab; also called CD33-PP-4/CD7-PP-13
For the molecule B4, in the assay with human CD7 [10], the “Fold reduction … vs 7-PP-1 WT” value is 20.3 fold. Besides, in the assay with human CD33 [11], the “Fold reduction … vs 33-PP-1 WT” value turned out to be 39 fold.

B5: CD33-PP-7 binding arm (Fab, V domains shown)
VH: B2 VH with W102Y, Y105A
VL: B2 VL
As for B5, the affinity with human CD33 [9], expressed as Kd, was 92.3 nM. In addition, the “FACS binding” value with human CD33 on cells was found to be 464 nM. Besides, in the assay with human CD33 [12], the “Fold Reduction in binding affinity compared to 33-PP-1 WT (Kd, nM)” value came to 67.9 fold.

B6: BVX160 (bispecific antibody)
heavy: B2 heavy with Y108A
light: B2 light
VH: B2 VH
VL: B2 VL
notes: bi-Fab; also called CD33-PP-1 WT/CD7-PP-13
Regarding B6, the “Fold reduction … vs 7-PP-1 WT” value with human CD7 [10] was determined as 20.3 fold. Moreover, in the assay with human CD33 [8], the “Fold reduction … vs 33-PP-1 WT” value is 0 fold.

B7: BVX102 (bispecific antibody)
heavy: B2 heavy
light: B2 light
VH: B2 VH with W102Y, Y105A
VL: B2 VL
notes: bi-Fab; also called CD33-PP-7/CD7-PP-1 WT
As for B7, in the assay with human CD33 [13], the “Fold reduction … vs 33-PP-1 WT” value worked out at 68 fold. Also, the “Fold reduction … vs 7-PP-1 WT” value with human CD7 [7] came to 0 fold.

B8: BVX120 (bispecific antibody)
heavy: B2 heavy with R57K
light: B2 light
VH: B2 VH
VL: B2 VL
notes: bi-Fab; also called CD33-PP-1 WT/CD7-PP-3
For B8, the “Fold reduction … vs 7-PP-1 WT” value with human CD7 [14] is 9.1 fold. The “Fold reduction … vs 33-PP-1 WT” value with human CD33 [8] worked out at 0 fold.

B9: BVX150 (bispecific antibody)
heavy: B2 heavy with R57K, Y108A
light: B2 light
VH: B2 VH
VL: B2 VL
notes: bi-Fab; also called CD33-PP-1 WT/CD7-PP-8
In the case of B9, the “Fold reduction … vs 7-PP-1 WT” value with human CD7 [15] stood at 64.3 fold. Moreover, in the assay with human CD33 [8], the “Fold reduction … vs 33-PP-1 WT” value came to 0 fold.

B10: BVX110 (bispecific antibody)
heavy: B2 heavy with R57G
light: B2 light
VH: B2 VH
VL: B2 VL
notes: bi-Fab; also called CD33-PP-1 WT/CD7-PP-2
With B10, the “Fold reduction … vs 7-PP-1 WT” value with human CD7 [16] was 21.3 fold. Further, the “Fold reduction … vs 33-PP-1 WT” value with human CD33 [8] came to 0 fold.

B11: BVX162 (bispecific antibody)
heavy: B2 heavy with Y108A
light: B2 light
VH: B2 VH with W102Y, Y105A
VL: B2 VL
notes: bi-Fab; also called CD33-PP-7/CD7-PP-13
B11: the “Fold reduction … vs 7-PP-1 WT” value with human CD7 [10] was found to be 20.3 fold. Besides, the “Fold reduction … vs 33-PP-1 WT” value with human CD33 [13] was found to be 68 fold.

B12: BVX101 (bispecific antibody)
heavy: B2 heavy
light: B2 light
VH: B2 VH with W102Y
VL: B2 VL
notes: bi-Fab; also called CD33-PP-4/CD7-PP-1 WT
Turning to B12, the “Fold reduction … vs 33-PP-1 WT” value with human CD33 [11] was 38.8 fold. For the same molecule, the “Fold reduction … vs 7-PP-1 WT” value with human CD7 [7] stood at 0 fold.

B13: BVX152 (bispecific antibody)
heavy: B2 heavy with R57K, Y108A
light: B2 light
VH: B2 VH with W102Y, Y105A
VL: B2 VL
notes: bi-Fab; also called CD33-PP-7/CD7-PP-8
Take B13: in the assay with human CD7 [15], the “Fold reduction … vs 7-PP-1 WT” value is 87 fold. Also, the “Fold reduction … vs 33-PP-1 WT” value with human CD33 [13] was 68 fold.

B14: CD33-PP-4 binding arm (Fab, V domains shown)
VH: B2 VH with W102Y
VL: B2 VL
B14 had a dissociation constant Kd with human CD33 [9] of 52.7 nM. In addition, the “FACS binding” value in the assay with human CD33 on cells is 321 nM. In addition, the “Fold Reduction in binding affinity compared to 33-PP-1 WT (Kd, nM)” value with human CD33 [12] is 38.8 fold.
